± gives the uncertainty stated by the source.
B1: Far upstream element-binding protein 1, residues 184 to 257; numbered along this chain, Q96AE4 (parent)
chain: GNAVQEIMIPASKAGLVIGKGGETIKQLQERAGVKMVMIQDGPQNTGADKPLRITGDPYKVQQAKEMVLELIRD

Variants of: B1
Assay: abundance fitness (aPCA) (normalised: wild type 0, dead -1); higher = more abundant; growth selection in yeast, the domain comes from the species named
Settings: Homo sapiens

N45F and N45I are within error of each other in abundance fitness: 0.023 ± 0.05 for the first, -0.029 ± 0.046 for the second.

First: N45Y
Second: I9V
The abundance fitness of the first is lower: -0.091 ± 0.044 for the first, 0.009 ± 0.029 for the second.

A11G and A11H are within error of each other in abundance fitness: -0.098 ± 0.027 for the first, -0.133 ± 0.052 for the second.

Compared with A11T, Y59T is higher in abundance fitness: -0.08 ± 0.035 for the first, 0.047 ± 0.033 for the second.

Y59I and G15D are within error of each other in abundance fitness: 0.046 ± 0.048 for the first, -0.031 ± 0.039 for the second.

G15Y and G15T are within error of each other in abundance fitness: -0.035 ± 0.048 for the first, -0.093 ± 0.036 for the second.

Compared with N2K, N2P is lower in abundance fitness: 0.155 ± 0.034 for the first, -0.028 ± 0.038 for the second.

Going from N2F to N2H, the abundance fitness falls from 0.043 ± 0.047 to -0.311 ± 0.058.

N2C and N2Q are within error of each other in abundance fitness: 0.052 ± 0.046 for the first, 0.095 ± 0.04 for the second.

N2W and G1V are within error of each other in abundance fitness: -0.028 ± 0.036 for the first, 0.038 ± 0.034 for the second.

Compared with G1K, G1R is lower in abundance fitness: -0.044 ± 0.068 for the first, -0.176 ± 0.038 for the second.

Compared with G1M, G33M is lower in abundance fitness: 0.173 ± 0.068 for the first, -0.137 ± 0.041 for the second.

Going from G33L to G33K, the abundance fitness rises from -0.354 ± 0.032 to -0.097 ± 0.036.

First: R73L
Second: R73M
The abundance fitness of the first is lower: -0.1 ± 0.034 for the first, 0.001 ± 0.039 for the second.

Compared with R73T, R73F is lower in abundance fitness: 0.043 ± 0.037 for the first, -0.197 ± 0.055 for the second.

R73N and R73V are within error of each other in abundance fitness: -0.004 ± 0.047 for the first, -0.038 ± 0.036 for the second.

Compared with R73E, E6P is lower in abundance fitness: 0.088 ± 0.04 for the first, -0.809 ± 0.053 for the second.

Going from E6I to E6Q, the abundance fitness rises from -0.101 ± 0.047 to 0.024 ± 0.038.

Going from E6T to E6F, the abundance fitness falls from -0.014 ± 0.035 to -0.217 ± 0.046.

Going from E6R to G56S, the abundance fitness falls from -0.145 ± 0.026 to -1.02 ± 0.051.

G56Q and G56H are within error of each other in abundance fitness: -0.962 ± 0.071 for the first, -1.09 ± 0.13 for the second.

G56Y and G56T are within error of each other in abundance fitness: -1.25 ± 0.17 for the first, -1.12 ± 0.069 for the second.

Compared with M36R, M36I is higher in abundance fitness: -0.747 ± 0.033 for the first, -0.053 ± 0.047 for the second.

First: M36P
Second: M36A
The abundance fitness of the first is lower: -0.789 ± 0.049 for the first, -0.194 ± 0.032 for the second.

First: E70V
Second: E70N
The abundance fitness of the first is lower: -0.339 ± 0.033 for the first, -0.127 ± 0.045 for the second.

First: E70H
Second: L69E
The abundance fitness of the first is lower: -0.081 ± 0.05 for the first, 0.011 ± 0.034 for the second.

L69D and L16M are within error of each other in abundance fitness: 0.016 ± 0.044 for the first, -0.018 ± 0.038 for the second.

First: L16F
Second: L16N
The abundance fitness of the first is higher: 0.003 ± 0.051 for the first, -0.103 ± 0.052 for the second.

Going from L16W to G21R, the abundance fitness rises from -0.068 ± 0.033 to 0.003 ± 0.026.

G21T and G21M are within error of each other in abundance fitness: -0.05 ± 0.034 for the first, -0.033 ± 0.038 for the second.

G21H and G21S are within error of each other in abundance fitness: -0.015 ± 0.051 for the first, -0.033 ± 0.03 for the second.

First: G21L
Second: K35H
The abundance fitness of the first is lower: -0.1 ± 0.029 for the first, 0.003 ± 0.058 for the second.

Going from K35E to K35T, the abundance fitness falls from 0.003 ± 0.035 to -0.093 ± 0.038.

Q40K and Q40T are within error of each other in abundance fitness: -0.025 ± 0.041 for the first, -0.059 ± 0.036 for the second.

Compared with Q40C, Q40H is lower in abundance fitness: -0.024 ± 0.049 for the first, -0.146 ± 0.057 for the second.

Compared with D57M, D57H is higher in abundance fitness: -0.138 ± 0.038 for the first, -0.022 ± 0.049 for the second.

Compared with K13P, K13W is higher in abundance fitness: -0.659 ± 0.046 for the first, -0.3 ± 0.037 for the second.

K13T and K13G are within error of each other in abundance fitness: -0.218 ± 0.036 for the first, -0.231 ± 0.029 for the second.

Going from L28T to L28S, the abundance fitness falls from -0.315 ± 0.041 to -0.639 ± 0.041.

Compared with L28E, L28K is lower in abundance fitness: -0.63 ± 0.046 for the first, -0.791 ± 0.059 for the second.

Q27I and Q27G are within error of each other in abundance fitness: -0.019 ± 0.062 for the first, -0.013 ± 0.028 for the second.

Q27M and M8N are within error of each other in abundance fitness: -0.008 ± 0.045 for the first, -0.078 ± 0.049 for the second.

M8Y and M8S are within error of each other in abundance fitness: -0.133 ± 0.049 for the first, -0.121 ± 0.031 for the second.

Compared with K26I, K26F is lower in abundance fitness: 0.013 ± 0.056 for the first, -0.129 ± 0.054 for the second.

First: G47V
Second: G47W
The abundance fitness of the first is higher: -0.054 ± 0.032 for the first, -0.157 ± 0.035 for the second.

Compared with G47E, G47K is higher in abundance fitness: -0.038 ± 0.036 for the first, 0.061 ± 0.041 for the second.

Going from G47Q to E30G, the abundance fitness falls from -0.027 ± 0.041 to -0.122 ± 0.028.

E30Q and E30M are within error of each other in abundance fitness: -0.035 ± 0.04 for the first, 0.025 ± 0.041 for the second.

Compared with V68K, V68R is lower in abundance fitness: -0.41 ± 0.039 for the first, -0.562 ± 0.031 for the second.

Compared with V68W, V68T is higher in abundance fitness: -0.963 ± 0.061 for the first, -0.143 ± 0.034 for the second.

V68G and V68S are within error of each other in abundance fitness: -0.48 ± 0.031 for the first, -0.425 ± 0.034 for the second.

Compared with V68A, V68L is higher in abundance fitness: -0.221 ± 0.033 for the first, -0.154 ± 0.032 for the second.

Going from L52I to L52C, the abundance fitness falls from -0.055 ± 0.049 to -0.229 ± 0.047.

First: L52H
Second: T24M
The abundance fitness of the first is lower: -0.853 ± 0.099 for the first, 0.002 ± 0.048 for the second.

Compared with T24P, T24R is higher in abundance fitness: -0.206 ± 0.033 for the first, -0.013 ± 0.026 for the second.

First: T24D
Second: T24K
The abundance fitness of the first is lower: -0.208 ± 0.048 for the first, 0.007 ± 0.041 for the second.

First: T55D
Second: T55P
The abundance fitness of the first is higher: -0.111 ± 0.045 for the first, -0.963 ± 0.058 for the second.

T55E and T55F are within error of each other in abundance fitness: -0.086 ± 0.032 for the first, -0.062 ± 0.051 for the second.

A48E and A48C are within error of each other in abundance fitness: 0.021 ± 0.034 for the first, 0.053 ± 0.046 for the second.

A48V and A48S are within error of each other in abundance fitness: -0.015 ± 0.032 for the first, -0.035 ± 0.031 for the second.

Going from A48D to Q29E, the abundance fitness falls from 0.077 ± 0.045 to -0.026 ± 0.034.

First: Q29W
Second: Q29Y
The abundance fitness of the first is higher: -0.345 ± 0.036 for the first, -0.67 ± 0.072 for the second.

Going from Q29I to Q29D, the abundance fitness falls from -0.342 ± 0.06 to -0.602 ± 0.06.

First: Q29A
Second: Q29G
The abundance fitness of the first is higher: -0.018 ± 0.032 for the first, -0.142 ± 0.029 for the second.

Going from Q29C to Q29V, the abundance fitness falls from -0.2 ± 0.045 to -0.351 ± 0.037.

K20H and K20T are within error of each other in abundance fitness: -0.045 ± 0.044 for the first, -0.035 ± 0.033 for the second.

First: K20C
Second: K20D
The abundance fitness of the first is lower: -0.14 ± 0.046 for the first, 0.049 ± 0.043 for the second.

Compared with K20W, G42D is higher in abundance fitness: -0.166 ± 0.039 for the first, -0.069 ± 0.046 for the second.

Compared with G42K, G42A is lower in abundance fitness: 0.049 ± 0.04 for the first, -0.028 ± 0.032 for the second.

Going from G42M to G42Y, the abundance fitness rises from -0.084 ± 0.04 to 0.055 ± 0.061.

G42F and E23L are within error of each other in abundance fitness: -0.078 ± 0.056 for the first, -0.051 ± 0.03 for the second.

E23F and E23V are within error of each other in abundance fitness: -0.101 ± 0.05 for the first, -0.063 ± 0.03 for the second.

First: E23I
Second: A3F
The abundance fitness of the first is lower: -0.051 ± 0.057 for the first, 0.165 ± 0.053 for the second.

Compared with A3P, A3V is lower in abundance fitness: 0.109 ± 0.037 for the first, 0.011 ± 0.032 for the second.

First: A3H
Second: A3I
The abundance fitness of the first is lower: -0.044 ± 0.05 for the first, 0.255 ± 0.053 for the second.

Going from I7G to I7P, the abundance fitness falls from -0.885 ± 0.035 to -1.14 ± 0.079.

First: I7A
Second: I7C
The abundance fitness of the first is lower: -0.674 ± 0.041 for the first, -0.394 ± 0.045 for the second.

K65I and K65A are within error of each other in abundance fitness: -0.049 ± 0.048 for the first, -0.064 ± 0.032 for the second.

First: K65C
Second: K65R
The abundance fitness of the first is lower: -0.097 ± 0.04 for the first, -0.012 ± 0.027 for the second.

Compared with I72A, I72C is higher in abundance fitness: -0.173 ± 0.032 for the first, 0.045 ± 0.04 for the second.

First: I72Q
Second: Q44I
The abundance fitness of the first is lower: -0.24 ± 0.037 for the first, -0.046 ± 0.056 for the second.

Going from Q44C to Q44K, the abundance fitness rises from -0.083 ± 0.043 to 0.038 ± 0.036.

Compared with P10I, P10C is higher in abundance fitness: -0.903 ± 0.084 for the first, -0.598 ± 0.053 for the second.

For P10Q, the abundance fitness was -0.391 ± 0.044.

From the Human Domainome abundance scans (Beltran et al. 2025)
